Assay results reported in paper PMC4000066 (Cell, 2014).

B1: His-GFP-caspase-1^CARD (domain or fragment, UniProt P29466 1-91, looked up)
chain: MADKVLKEKRKLFIRSMGEGTINGLLDELLQTRVLNKEEMEKVKRENATVMDKTRALIDSVIPKGAQACQICITYICEEDSYLAGTLGLSA
B2: endogenous caspase-1 of THP-1 cells (enzyme, human (endogenous in THP-1), UniProt P29466 1-404, looked up)
chain: MADKVLKEKRKLFIRSMGEGTINGLLDELLQTRVLNKEEMEKVKRENATVMDKTRALIDSVIPKGAQACQICITYICEEDSYLAGTLGLSADQTSGNYLNMQDSQGVLSSFPAPQAVQDNPAMPTSSGSEGNVKLCSLEEAQRIWKQKSAEIYPIMDKSSRTRLALIICNEEFDSIPRRTGAEVDITGMTMLLQNLGYSVDVKKNLTASDMTTELEAFAHRPEHKTSDSTFLVFMSHGIREGICGKKHSEQVPDILQLNAIFNMLNTKNCPSLKDKPKVIIIQACRGDSPGVVWFKDSVGVSGNLSLPTTEEFEDDAIKKAHIEKDFIAFCSSTPDNVSWRHPTMGSVFIGRLIEHMQEYACSCDVEEIFRKVRFSFEQPDGRAQMPTTERVTLTRCFYLFPGH

How the values were obtained:
[1] = target: ASC^FL (from His-MBP-ASC^FL after removal of His-MBP by TEV) (UniProt Q9ULZ3 1-195); experiment: pull-down
ASC^FL (from His-MBP-ASC^FL after removal of His-MBP by TEV), sequence (Q9ULZ3 whole entry): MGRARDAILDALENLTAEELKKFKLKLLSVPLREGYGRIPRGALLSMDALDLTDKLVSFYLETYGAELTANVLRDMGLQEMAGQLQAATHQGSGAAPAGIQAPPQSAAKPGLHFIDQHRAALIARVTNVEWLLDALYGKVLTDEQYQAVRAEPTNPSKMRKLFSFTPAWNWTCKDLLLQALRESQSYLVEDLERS

[2] = target: endogenous ASC of THP-1 cells (human (endogenous in THP-1), UniProt Q9ULZ3 1-195); experiment: co-IP
endogenous ASC of THP-1 cells, sequence (Q9ULZ3 whole entry): as above

Row | Binder | binding result [1] | stoichiometry N [2]
1 | B1 | binds | –
2 | B2 | – | ~3.5 fold (caspase-1 to ASC)
